This is an account of results in publication PMC11077437.

Test [1] addresses T1, human CS1 on CS1pos OPM2 multiple myeloma cells (human (endogenous in OPM2)) (UniProt Q9NQ25).
T1 sequence: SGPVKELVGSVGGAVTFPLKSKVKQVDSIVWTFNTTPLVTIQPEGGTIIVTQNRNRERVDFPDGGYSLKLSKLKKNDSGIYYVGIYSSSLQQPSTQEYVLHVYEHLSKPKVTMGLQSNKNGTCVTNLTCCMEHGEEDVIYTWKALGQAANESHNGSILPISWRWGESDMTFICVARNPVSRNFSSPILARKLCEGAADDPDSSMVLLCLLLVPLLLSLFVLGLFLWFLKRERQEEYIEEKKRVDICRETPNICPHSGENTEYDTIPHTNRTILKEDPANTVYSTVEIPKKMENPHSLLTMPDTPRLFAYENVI

Test [2] has as its target T2, recombinant human CS1 protein (CS1-(his)C) (human) (UniProt Q9NQ25).
T2 sequence: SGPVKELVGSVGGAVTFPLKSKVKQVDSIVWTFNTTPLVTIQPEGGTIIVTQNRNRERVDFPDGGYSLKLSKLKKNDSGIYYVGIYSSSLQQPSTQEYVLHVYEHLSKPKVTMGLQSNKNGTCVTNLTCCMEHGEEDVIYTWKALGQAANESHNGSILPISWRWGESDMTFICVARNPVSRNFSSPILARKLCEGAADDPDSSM
Briefly: SPR; Biacore T200; recombinant CS1 amine-coupled on a CM5 chip; VHH 100 nM to 3.125 nM in HBS pH 7.4, 25°C; association 180 s, dissociation 300 s; fit '1:1 binding with drift and RI2'; n=1. (In SPR one partner is held on a chip, and binding of the other changes the refractive index at the surface.)

In test [3] the target is T1, human CS1 on CS1pos OPM2 multiple myeloma cells (human (endogenous in OPM2)). The test is described as follows: flow cytometry on cells; purified VHH at 200 nM, 1 h at 4°C, on CS1pos OPM2 cells; detected by mouse anti-His IgG1 mAb and APC anti-mouse IgG1 mAb; ΔMFI against the non-targeting control VHH R3B23 at 200 nM; n=1. On the technique in general: In flow cytometry, cells or beads pass a laser one at a time.

B1: VHH-2 (VHH)
VHH: DVQLVESGGGLVQPGDSLRLSCTASGRTFENNFMGWFRQPPGKEREFVAAVGWNTGRGYYTDSVKGRFTISRDSAKNTVYLQMNSLKPEDTAVYSCNAPLQSLDRRLPGPYWGQGTQVTVSS
Consider B1, for which the tumor uptake of the 99mTc-labelled VHH in subcutaneous CS1pos OPM2 tumors in mice, ex vivo at 90 min p.i. (n=3) in test [1] is 0.48 % IA/g. Moreover, in test [2], the Kd turned out to be 49.7 nM, the koff turned out to be 0.0318 s⁻¹ and the kon was 641000 M⁻¹ s⁻¹. The molecule further gave a ΔMFI [VHH] = 200 nM in test [3] of 6.09.

One may read the Kd as a measure of binding affinity in units of concentration. A word on the koff: it is the first-order rate constant of dissociation. As a reminder, the kon is the rate constant with which the complex forms.
